In US20250042992A1 (University of California, published 2025):

Experiments:
[1] = biological target: T1, recombinant fusion protein of human DLK1 extracellular domain (ECD) and monomeric immunoglobulin Fc domain … (human, UniProt P80370 24-303); assay: ELISA with human DLK1 ECD-mFc fusion protein
T1 construct: also called human DLK1 ECD-mFc fusion protein; not shown: monomeric immunoglobulin Fc domain (mFc)
T1 sequence: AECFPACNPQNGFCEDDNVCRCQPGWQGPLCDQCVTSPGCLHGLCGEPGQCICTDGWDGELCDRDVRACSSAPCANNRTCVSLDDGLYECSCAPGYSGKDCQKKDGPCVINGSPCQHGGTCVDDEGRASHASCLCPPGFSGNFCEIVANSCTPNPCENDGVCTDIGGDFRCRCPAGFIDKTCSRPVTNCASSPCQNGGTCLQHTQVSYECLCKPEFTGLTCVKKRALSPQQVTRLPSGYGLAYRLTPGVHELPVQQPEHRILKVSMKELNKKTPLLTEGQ

[2] = biological target: T1, recombinant fusion protein of human …; assay: ELISA on recombinant DLK1 ECD-mFc
[3] = biological target: T2, human DLK1 long form (isoform 1, DLK1-FL) fused to mGFP, overexpressed on HEK293T cells (human, UniProt P80370 24-383); assay: KinExA on cells, row HEK293 DLK1-mGFP G05 Cells
T2 construct: also called HEK293T DLK1 mGFP G06 (long form); DLK-FL; not shown: mGFP fluorescent protein fused to DLK1
T2 sequence: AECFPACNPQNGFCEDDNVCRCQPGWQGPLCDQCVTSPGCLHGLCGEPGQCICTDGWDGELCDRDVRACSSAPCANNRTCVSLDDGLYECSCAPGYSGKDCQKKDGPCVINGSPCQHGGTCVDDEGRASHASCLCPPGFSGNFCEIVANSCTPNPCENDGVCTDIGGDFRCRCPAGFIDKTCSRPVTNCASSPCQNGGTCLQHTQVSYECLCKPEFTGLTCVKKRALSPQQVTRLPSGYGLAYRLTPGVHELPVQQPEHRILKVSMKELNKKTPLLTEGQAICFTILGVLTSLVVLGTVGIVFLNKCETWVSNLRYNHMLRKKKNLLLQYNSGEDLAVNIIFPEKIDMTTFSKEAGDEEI

[4] = biological target: T3, monkey DLK1 fused to mGFP, overexpressed on HEK293T cells (monkey (crab-eating macaque), UniProt A0A2K5TMQ6 24-383); assay: KinExA on cells, row HEK293T Monkey DLK1mGFP mass
T3 construct: whole, on cells; also called crab-eating macaque DLK1; not shown: mGFP fluorescent protein fused to DLK1
T3 sequence: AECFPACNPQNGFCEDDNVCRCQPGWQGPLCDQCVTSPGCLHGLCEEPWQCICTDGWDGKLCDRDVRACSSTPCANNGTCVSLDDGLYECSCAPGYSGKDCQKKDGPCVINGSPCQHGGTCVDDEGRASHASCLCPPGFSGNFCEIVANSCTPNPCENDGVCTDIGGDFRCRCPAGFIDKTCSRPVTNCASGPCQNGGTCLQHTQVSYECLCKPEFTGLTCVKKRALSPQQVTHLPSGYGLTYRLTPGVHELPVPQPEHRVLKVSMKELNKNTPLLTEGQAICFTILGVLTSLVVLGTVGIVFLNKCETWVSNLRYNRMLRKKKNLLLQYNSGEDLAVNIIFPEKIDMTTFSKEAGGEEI

[5] = biological target: T1, recombinant fusion protein of human …; assay: Octet384 binding kinetics using recombinant protein DLK1 ECD-mFc
[6] = biological target: T1, recombinant fusion protein of human …; assay: Octet384 binding kinetics using recombinant protein DLK1 ECD-mFc, row Ka (1/Ms)
[7] = biological target: T1, recombinant fusion protein of human …; assay: Octet384 binding kinetics using recombinant protein DLK1 ECD-mFc, row Kdis (1/s)
[8] = biological target: human DLK1 endogenously expressed on COR-L279 small cell lung carcinoma cells (human) (UniProt P80370); assay: flow cytometry, antibody at 20µg/ml, row CORL-279 (SCLC, DLK+); row M202 of the same block: 5,208.0
[9] = biological target: T2, human DLK1 long form (isoform 1, …); assay: KinExA on cells, block Cross Reactivity to Three Tox Models - KD by KinExA (nM), row HEK293T Human DLK1mGFP G05
[10] = biological target: T3, monkey DLK1 fused to mGFP, …; assay: KinExA on HEK293T DLK1mGFP Monkey mass pop cells detached by Versene; Error% 3.92; 95% CI 5.15nM - 17.83nM; equilibrium curves 400pM, 50nM
[11] = biological target: T4, rat DLK1 fused to mGFP, overexpressed on HEK293T cells (rat, UniProt O70534 24-383); assay: flow cytometry, row HEK293T Rat DLK1mGFP mass pop
T4 construct: whole, on cells; not shown: mGFP fluorescent protein fused to DLK1
T4 sequence (looked up): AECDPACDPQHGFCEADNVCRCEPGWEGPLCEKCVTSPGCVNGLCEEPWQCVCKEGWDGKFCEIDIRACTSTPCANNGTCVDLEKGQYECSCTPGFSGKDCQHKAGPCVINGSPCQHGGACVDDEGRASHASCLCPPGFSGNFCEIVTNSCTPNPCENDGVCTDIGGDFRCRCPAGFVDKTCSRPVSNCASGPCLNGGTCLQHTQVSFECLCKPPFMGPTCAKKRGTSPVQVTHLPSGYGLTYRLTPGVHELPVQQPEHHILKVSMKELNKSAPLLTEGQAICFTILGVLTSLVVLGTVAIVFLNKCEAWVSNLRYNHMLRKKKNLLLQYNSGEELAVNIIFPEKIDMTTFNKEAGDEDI

B1: humanized anti-DLK1 antibody 04-0547-h2 (IgG1) (antibody, V domains shown)
VH: EVQLVESGGGLVQPGGSLRLSCAASGFSISDYYMAWVRQAPGKGLEWVANINYDGTNTYYADSVKGRFTISRDNSKNTLYLQMNSLRAEDTAVYYCVRSYYYYGMEYWGQGTTVTVSS
VL: DIQMTQSPSSLSASVGDRVTITCRASHDVSTAVAWYQQKPGKAPKLLIYSASYRYTGVPSRFSGSGSGTDFTLTISSLQPEDFATYYCQQHYRIPLTFGQGTKLEIK
notes: human kappa (P01834) and human IgG1 (P01857) constant regions
fold lower binding affinity (ELISA EC50) than 04-0561-f1 and 04-0562-h10 [1]: ~20 fold
EC50 [2]: 10.3 nM
Kd [3]: 5.34 nM
Kd [4]: 9.89 nM
Kd [5]: 0.298 nM
kon [6]: 15500 M⁻¹ s⁻¹
koff [7]: 0.00462 s⁻¹
Antibody Binding Activity by Flow Cytometry (20µg/ml) [8]: 186000
Kd [9]: 5.34 nM
Kd [10]: 9.89 nM

B2: humanized anti-DLK1 antibody 04-0561-F1 (IgG1) (antibody, V domains shown)
VH: QVQLQESGPGLVKPSETLSLTCTVSGFSLSIYSVHWVRQPPGKGLEWIGLIWGGGSTDYNPSLKSRVTISKDTSKNQVSLKLSSVTAADTAVYYCARKEGNYLWFAYWGQGTLVTVSS
VL: DIVMTQSPDSLAVSLGERVTMNCKSSQSLLQSSNQKNYLAWYQQKPGQPPKLLVYFASTRESGVPDRFSGSGSGTDFTLTISSVQAEDVAVYYCQQHYSIPLTFGQGTKLEIKR
EC50 [1]: ~0.5 nM
EC50 [2]: 0.684 nM
Kd [3]: 1.11 nM
Kd [4]: 2.19 nM
binding result [11]: no binding (tested: 20µg/ml)
Kd [5]: 0.0186 nM
kon [6]: 48200 M⁻¹ s⁻¹
koff [7]: 0.000898 s⁻¹
Kd [9]: 1.11 nM
